Substitutions are numbered along the chain they refer to. Names may count otherwise.
T1: Best1-CFP (human, UniProt O76090 1-585)
T1 sequence (looked up): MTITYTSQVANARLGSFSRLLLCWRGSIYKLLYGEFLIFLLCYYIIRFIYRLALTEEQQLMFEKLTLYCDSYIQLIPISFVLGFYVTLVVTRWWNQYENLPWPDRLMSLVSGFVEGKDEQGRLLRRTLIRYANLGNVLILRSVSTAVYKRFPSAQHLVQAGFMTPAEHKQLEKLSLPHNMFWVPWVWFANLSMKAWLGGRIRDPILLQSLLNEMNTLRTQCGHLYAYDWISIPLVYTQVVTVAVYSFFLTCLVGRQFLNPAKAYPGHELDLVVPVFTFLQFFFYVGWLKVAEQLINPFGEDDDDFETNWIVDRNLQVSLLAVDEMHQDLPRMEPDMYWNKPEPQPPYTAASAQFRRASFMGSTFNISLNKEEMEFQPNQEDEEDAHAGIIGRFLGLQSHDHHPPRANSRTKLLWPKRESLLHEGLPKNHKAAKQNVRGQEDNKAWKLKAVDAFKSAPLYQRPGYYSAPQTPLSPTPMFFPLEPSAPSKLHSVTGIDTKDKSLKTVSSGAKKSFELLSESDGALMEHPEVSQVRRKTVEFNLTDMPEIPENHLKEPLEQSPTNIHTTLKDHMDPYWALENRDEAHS

B1: N179del Best1-YFP (natural protein, human, UniProt O76090 1-585, looked up)
chain: MTITYTSQVANARLGSFSRLLLCWRGSIYKLLYGEFLIFLLCYYIIRFIYRLALTEEQQLMFEKLTLYCDSYIQLIPISFVLGFYVTLVVTRWWNQYENLPWPDRLMSLVSGFVEGKDEQGRLLRRTLIRYANLGNVLILRSVSTAVYKRFPSAQHLVQAGFMTPAEHKQLEKLSLPHMFWVPWVWFANLSMKAWLGGRIRDPILLQSLLNEMNTLRTQCGHLYAYDWISIPLVYTQVVTVAVYSFFLTCLVGRQFLNPAKAYPGHELDLVVPVFTFLQFFFYVGWLKVAEQLINPFGEDDDDFETNWIVDRNLQVSLLAVDEMHQDLPRMEPDMYWNKPEPQPPYTAASAQFRRASFMGSTFNISLNKEEMEFQPNQEDEEDAHAGIIGRFLGLQSHDHHPPRANSRTKLLWPKRESLLHEGLPKNHKAAKQNVRGQEDNKAWKLKAVDAFKSAPLYQRPGYYSAPQTPLSPTPMFFPLEPSAPSKLHSVTGIDTKDKSLKTVSSGAKKSFELLSESDGALMEHPEVSQVRRKTVEFNLTDMPEIPENHLKEPLEQSPTNIHTTLKDHMDPYWALENRDEAHS
B2: WT Best1-YFP (natural protein, human, UniProt O76090 1-585, looked up)
chain: T1 sequence (looked up)
B3: A146L Best1-YFP (natural protein, human, UniProt O76090 1-585, looked up)
chain: T1 sequence (looked up) with A146L

Molecular target: T1, Best1-CFP
Experiment: FRET or BRET

Binder	FRET efficiency (%E) [%]
B1	12.4
B2	13.6
B3	14.8

From publication PMC4123461 (Experimental eye research, 2014)
